These results are taken from paper PMC2680933.

Among the targets are III3(D838G)-FRET; III3(V798D)-FRET; III3(V834D)-FRET.
What all share (experiment): FRET or BRET
A general note: In BRET a luciferase serves as donor, and the signal depends on an acceptor being close.

Assay [1] concerns the target III3-FRET (III3 flanked by mYPet and mECFP*).

As usually defined, the Kd is the constant that tells how readily two partners part at equilibrium. Read a low Kd as a tighter complex. In assay [1], anastellin (domain or fragment) yielded an FRET efficiency of the construct with anastellin (0.19 without) of 0.28, a Kd of 210 nM, a first order rate constant of binding of 0.02 s⁻¹ and a half time of binding of 30 s. For the same substance, in the assay with III3(D838G)-FRET, the FRET efficiency of the construct with anastellin (0.18 without) turned out to be 0.27, the dissociation constant Kd stood at 490 nM and the half time of binding was determined as 60 s. In addition, in the assay with III3(V798D)-FRET, the FRET efficiency of the construct with anastellin (0.21 without) worked out at 0.28, the Kd came to 180 nM and the half time of binding was less than 1 s. In the assay with III3(V834D)-FRET, this substance displayed an FRET efficiency of the construct with anastellin (0.21 without) of 0.27, a Kd of less than 50 nM and a half time of binding of less than 1 s.
